Laboratory results: publication PMC8914023

Legend:
[1] = target: F-actin (rabbit muscle actin filaments) (rabbit) (UniProt P68135); test: SPR
[2] = target: EhP3 (Entamoeba histolytica 14-3-3 protein isoform 3) (Entamoeba histolytica); test: SPR; Autolab ESPIRIT; EhP3 immobilised; EhActo flowed at increasing concentrations; 10 mM HEPES, 0.2 mM calcium acetate, 0.005% Triton-X100; 25°C
Chain of EhP3 (Entamoeba histolytica 14-3-3 protein isoform 3) (Entamoeba histolytica) (C4M0F4 whole entry, canonical isoform): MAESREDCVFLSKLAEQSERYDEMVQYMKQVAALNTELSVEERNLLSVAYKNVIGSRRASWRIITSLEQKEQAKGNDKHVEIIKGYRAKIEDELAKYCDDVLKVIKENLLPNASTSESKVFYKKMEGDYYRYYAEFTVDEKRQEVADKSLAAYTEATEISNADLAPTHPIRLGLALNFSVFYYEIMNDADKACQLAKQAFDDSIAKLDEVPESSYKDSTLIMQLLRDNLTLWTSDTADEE

Work on “Entamoeba histolytica actophorin (EhActo) (from UniProt C4LVG4 1-138) (natural protein)” yielded a Kd [1] of 249 nM and a Kd [2] of 1000 nM.
